Measurements reported in patent US6458927B1, “Polypeptide with appetite regulating activity” (Novo Nordisk A/S, priority 1997, dated 2002).

Tested on: Mice
Assay: Test method for measuring appetite suppression in mice (milk consumption after ICV injection)
Type: in vivo
Conditions: for % Feeding Suppression: food deprived, milk consumption over 10 minutes, 30 min after injection, percent reduction relative to control mean
Description: Mice were deprived of their normal feed for two days and given free access to a solution of nutritionally complete infant formula milk (Complan®) for the first day, after which food deprivation was complete for the last day before testing. After one day of food deprivation, mice were injected intra-cerebroventricularly (ICV) in the lateral ventricle with 10 microliters of a solution containing the test substance. Thirty minutes after injection, mice were individually placed in a 15×15×15 cm test box with a stainless steel grid floor and a glass drinking tube which projected into the box. The drinking tube was connected to a reservoir containing the formula milk solution, and the interior of the drinking tube contained an electrode enabling the detection of drinking contacts with the solution by measuring the flow of a weak (unnoticeable) electric current through mice by means of an electronic apparatus connected to the drinking tube electrode and the stainless steel grid floor. Consumption of the milk solution was measured over a 10 minutes period by electronically recording the total amount of contact with the milk solution during the test session. The degree of appetite suppression produced by a given test substance was determined by statistical comparison of the duration of milk consumption by control (vehicle treated) mice with that of mice treated with a test substance. The degree of appetite suppression in a treated group of mice was expressed as percent reduction of consumption relative to the mean of the control group's response.

B1: Ala-Leu-Asp-Ile-Tyr-Ser-Ala-Val-Asp-Asp-Ala-Ser-His-Glu-Lys-Glu-Leu-Ile- Glu-Ala-Leu-Gln-Glu-Val-Leu-Lys-Lys-Leu-Lys-Ser-Lys-Arg-Ile-Pro-Ile-Tyr- … (protein)
chain: ALDIYSAVDDASHEKELIEALQEVLKKLKSKRIPIYEKKYGQVPMCDAGEQCAVRKGARIGKLCDCPRGTSCNSFLLKCL
notes: recombinant rat CART fragment 10-89 from FXa digest of thioredoxin-CART fusion (E. coli)
% Feeding Suppression (ICV dose 1 microgram): 41%
% Feeding Suppression (ICV dose 2 micrograms): 70%
% Feeding Suppression (ICV dose 5 micrograms): 71%
% Feeding Suppression (ICV dose 10 micrograms): 59%
% Feeding Suppression (ICV dose 20 micrograms): 78%
suppression of milk consumption (statistical significance, in words) (intra-cerebroventricular injection in phosphate buffered saline, over the dose range tested for the substance): statistically significant suppression of milk consumption
